Measured values taken from PMC10397247.

How the values were obtained:
N6-AA = biological target: T1, N6-AA; assay: two-hybrid library CCmax;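 further: natural log of median RNA to DNA barcode read ratio; higher means stronger binding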
T1 chain: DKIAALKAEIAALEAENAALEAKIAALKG

P3SHb = biological target: T2, P3SHb; assay: two-hybrid library CCNG1;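 further: natural log of median RNA to DNA barcode read ratio; higher means stronger binding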
T2 chain: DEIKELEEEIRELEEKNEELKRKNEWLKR

P4SHb = biological target: T3, P4SHb; assay: two-hybrid library CCNG1;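 further: natural log of median RNA to DNA barcode read ratio; higher means stronger binding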
T3 chain: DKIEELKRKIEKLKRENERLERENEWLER

P5SHb = biological target: T4, P5SHb; assay: two-hybrid library CCNG1;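 further: natural log of median RNA to DNA barcode read ratio; higher means stronger binding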
T4 chain: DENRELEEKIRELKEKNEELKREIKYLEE

P6SHb = biological target: T5, P6SHb; assay: two-hybrid library CCNG1
T5 chain: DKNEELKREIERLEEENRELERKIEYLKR

P7SHb = biological target: T6, P7SHb; assay: two-hybrid library CCNG1
T6 chain: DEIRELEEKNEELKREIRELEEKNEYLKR

P8SHb = biological target: T7, P8SHb; assay: two-hybrid library CCNG1
T7 chain: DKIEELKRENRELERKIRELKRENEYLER

P9SHb = biological target: T8, P9SHb; assay: two-hybrid library CCNG1
T8 chain: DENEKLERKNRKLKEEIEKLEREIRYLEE

O13-bS = biological target: T9, O13-bS; assay: two-hybrid library CCNG1
T9 chain: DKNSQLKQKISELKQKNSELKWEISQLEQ

O15-bS = biological target: T10, O15-bS; assay: two-hybrid library CCNG1
T10 chain: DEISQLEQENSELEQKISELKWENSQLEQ

O16-bS = biological target: T11, O16-bS; assay: two-hybrid library CCNG1
T11 chain: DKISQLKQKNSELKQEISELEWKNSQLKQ

O2-bS = biological target: T12, O2-bS; assay: two-hybrid library CCNG1
T12 chain: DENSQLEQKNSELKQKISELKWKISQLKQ

O3-bS = biological target: T13, O3-bS; assay: two-hybrid library CCNG1
T13 chain: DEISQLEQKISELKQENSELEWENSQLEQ

O4-bS = biological target: T14, O4-bS; assay: two-hybrid library CCNG1
T14 chain: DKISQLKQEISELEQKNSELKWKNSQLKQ

O5-bS = biological target: T15, O5-bS; assay: two-hybrid library CCNG1
T15 chain: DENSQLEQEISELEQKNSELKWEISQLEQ

O6-bS = biological target: T16, O6-bS; assay: two-hybrid library CCNG1
T16 chain: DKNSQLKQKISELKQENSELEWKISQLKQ

O7-bS = biological target: T17, O7-bS; assay: two-hybrid library CCNG1
T17 chain: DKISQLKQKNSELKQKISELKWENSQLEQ

O8-bS = biological target: T18, O8-bS; assay: two-hybrid library CCNG1
T18 chain: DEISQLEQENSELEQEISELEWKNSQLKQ

O9-bS = biological target: T19, O9-bS; assay: two-hybrid library CCNG1
T19 chain: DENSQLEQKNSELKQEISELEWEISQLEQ

4H319-bN = biological target: T20, 4H319-bN; assay: two-hybrid library CCNG1
T20 chain: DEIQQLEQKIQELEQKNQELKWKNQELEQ

4H3277-bN = biological target: T21, 4H3277-bN; assay: two-hybrid library CCNG1
T21 chain: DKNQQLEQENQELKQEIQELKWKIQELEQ

4H348-bN = biological target: T22, 4H348-bN; assay: two-hybrid library CCNG1
T22 chain: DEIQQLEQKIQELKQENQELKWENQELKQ

4H40-bN = biological target: T23, 4H40-bN; assay: two-hybrid library CCNG1
T23 chain: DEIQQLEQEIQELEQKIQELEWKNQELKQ

4H477-bN = biological target: T24, 4H477-bN; assay: two-hybrid library CCNG1
T24 chain: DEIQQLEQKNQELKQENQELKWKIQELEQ

4H492-bN = biological target: T25, 4H492-bN; assay: two-hybrid library CCNG1
T25 chain: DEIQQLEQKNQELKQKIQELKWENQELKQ

4H741-bN = biological target: T26, 4H741-bN; assay: two-hybrid library CCNG1
T26 chain: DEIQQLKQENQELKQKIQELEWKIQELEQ

4H1449-AA = biological target: T27, 4H1449-AA; assay: two-hybrid library CCmax
T27 chain: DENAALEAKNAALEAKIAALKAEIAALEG

4H1593-AA = biological target: T28, 4H1593-AA; assay: two-hybrid library CCmax; settings: mean of both orientations
T28 chain: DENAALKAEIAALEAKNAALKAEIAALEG

4H1878-AA = biological target: T29, 4H1878-AA; assay: two-hybrid library CCmax; settings: mean of both orientations
T29 chain: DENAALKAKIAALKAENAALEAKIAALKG

4H235-AA = biological target: T30, 4H235-AA; assay: two-hybrid library CCmax; settings: mean of both orientations
T30 chain: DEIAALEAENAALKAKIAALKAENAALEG

4H249-AA = biological target: T31, 4H249-AA; assay: two-hybrid library CCmax; settings: mean of both orientations
T31 chain: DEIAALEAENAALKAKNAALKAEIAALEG

4H2580-AA = biological target: T32, 4H2580-AA; assay: two-hybrid library CCmax; settings: mean of both orientations
T32 chain: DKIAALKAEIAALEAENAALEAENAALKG

4H2604-AA = biological target: T33, 4H2604-AA; assay: two-hybrid library CCmax; settings: mean of both orientations
T33 chain: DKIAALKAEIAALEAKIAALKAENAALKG

4H2621-AA = biological target: T34, 4H2621-AA; assay: two-hybrid library CCmax; settings: mean of both orientations
T34 chain: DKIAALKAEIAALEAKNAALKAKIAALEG

4H2760-AA = biological target: T35, 4H2760-AA; assay: two-hybrid library CCmax; settings: mean of both orientations
T35 chain: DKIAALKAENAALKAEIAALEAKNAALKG

4H2774-AA = biological target: T36, 4H2774-AA; assay: two-hybrid library CCmax; settings: mean of both orientations
T36 chain: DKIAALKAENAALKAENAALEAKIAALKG

4H2903-AA = biological target: T37, 4H2903-AA; assay: two-hybrid library CCmax; settings: mean of both orientations
T37 chain: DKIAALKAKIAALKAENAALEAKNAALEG

4H2947-AA = biological target: T38, 4H2947-AA; assay: two-hybrid library CCmax; settings: mean of both orientations
T38 chain: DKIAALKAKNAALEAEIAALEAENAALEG

4H2961-AA = biological target: T39, 4H2961-AA; assay: two-hybrid library CCmax; settings: mean of both orientations
T39 chain: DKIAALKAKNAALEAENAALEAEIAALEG

4H3049-AA = biological target: T40, 4H3049-AA; assay: two-hybrid library CCmax; settings: mean of both orientations
T40 chain: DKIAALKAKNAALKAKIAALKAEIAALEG

4H3094-AA = biological target: T41, 4H3094-AA; assay: two-hybrid library CCmax; settings: mean of both orientations
T41 chain: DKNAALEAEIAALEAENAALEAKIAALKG

4H324-AA = biological target: T42, 4H324-AA; assay: two-hybrid library CCmax; settings: mean of both orientations
T42 chain: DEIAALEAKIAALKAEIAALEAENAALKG

4H341-AA = biological target: T43, 4H341-AA; assay: two-hybrid library CCmax
T43 chain: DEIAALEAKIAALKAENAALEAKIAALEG

4H3449-AA = biological target: T44, 4H3449-AA; assay: two-hybrid library CCmax; settings: mean of both orientations
T44 chain: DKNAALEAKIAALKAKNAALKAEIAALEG

4H3619-AA = biological target: T45, 4H3619-AA; assay: two-hybrid library CCmax; settings: mean of both orientations
T45 chain: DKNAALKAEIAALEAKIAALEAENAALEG

4H3629-AA = biological target: T46, 4H3629-AA; assay: two-hybrid library CCmax; settings: mean of both orientations
T46 chain: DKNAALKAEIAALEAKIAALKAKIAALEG

4H3777-AA = biological target: T47, 4H3777-AA; assay: two-hybrid library CCmax; settings: mean of both orientations
T47 chain: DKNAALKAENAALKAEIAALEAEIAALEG

4H380-AA = biological target: T48, 4H380-AA; assay: two-hybrid library CCmax; settings: mean of both orientations
T48 chain: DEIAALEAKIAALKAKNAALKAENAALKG

4H3915-AA = biological target: T49, 4H3915-AA; assay: two-hybrid library CCmax; settings: mean of both orientations
T49 chain: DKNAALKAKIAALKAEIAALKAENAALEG

4H3974-AA = biological target: T50, 4H3974-AA; assay: two-hybrid library CCmax; settings: mean of both orientations
T50 chain: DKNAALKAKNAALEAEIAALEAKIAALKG

4H432-AA = biological target: T51, 4H432-AA; assay: two-hybrid library CCmax; settings: mean of both orientations
T51 chain: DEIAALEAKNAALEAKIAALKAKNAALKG

4H446-AA = biological target: T52, 4H446-AA; assay: two-hybrid library CCmax; settings: mean of both orientations
T52 chain: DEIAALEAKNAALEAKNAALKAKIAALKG

4H63-AA = biological target: T53, 4H63-AA; assay: two-hybrid library CCmax; settings: mean of both orientations
T53 chain: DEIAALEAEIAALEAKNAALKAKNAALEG

Binder DKIAALKAEIAALEAENAALEAKIAALKG [N6-AA] has an interaction score (N6-AA) of 1.66.

With DEIKELEEEIRELEEKNEELKRKNEWLKR [P3SHb] the interaction score (P3SHb) was 0.389, the interaction score (P4SHb) was 1.16 and the interaction score (P5SHb) was 0.636. For the same binder, the interaction score (P6SHb) was 0.81, the interaction score (P7SHb) was 0.504 and the interaction score (P8SHb) was -0.0984. It also gave an interaction score (P9SHb) of 0.0235.

DKNSQLKQKISELKQKNSELKWEISQLEQ [O13-bS] gave an interaction score (O13-bS) of -1.65, an interaction score (O15-bS) of -2.27 and an interaction score (O16-bS) of -1.78. It also gave an interaction score (O2-bS) of -0.819, an interaction score (O3-bS) of -1.55 and an interaction score (O4-bS) of -2.17. The interaction score (O5-bS) was -2.23, the interaction score (O6-bS) was -0.545 and the interaction score (O7-bS) was -1.16. The interaction score (O8-bS) was -1.08 and the interaction score (O9-bS) was -1.08.

DEIQQLEQKIQELEQKNQELKWKNQELEQ [4H319-bN] showed an interaction score (4H319-bN) of -0.057, an interaction score (4H3277-bN) of -0.892 and an interaction score (4H348-bN) of -1.38. The interaction score (4H40-bN) was 0.382, the interaction score (4H477-bN) was 0.197 and the interaction score (4H492-bN) was -0.916. It also gave an interaction score (4H741-bN) of -0.781 and an interaction score (O13-bS) of -2.53.

With DENAALEAKNAALEAKIAALKAEIAALEG [4H1449-AA] the interaction score (4H1449-AA) was -0.875, the interaction score (4H1593-AA) was -1.66 and the interaction score (4H1878-AA) was -1.34. For the same binder, the interaction score (4H235-AA) was -1.93, the interaction score (4H249-AA) was -1.66 and the interaction score (4H2580-AA) was -0.863. It also gave an interaction score (4H2604-AA) of -0.197, an interaction score (4H2621-AA) of -0.636 and an interaction score (4H2760-AA) of -1.16. It also gave an interaction score (4H2774-AA) of -1.47, an interaction score (4H2903-AA) of -1.54 and an interaction score (4H2947-AA) of -1.1. For the same binder, the interaction score (4H2961-AA) was -1.66, the interaction score (4H3049-AA) was -0.585 and the interaction score (4H3094-AA) was -1.53. For the same binder, the interaction score (4H324-AA) was -0.72, the interaction score (4H341-AA) was -1.74 and the interaction score (4H3449-AA) was -1.65. The interaction score (4H3619-AA) was -1.1, the interaction score (4H3629-AA) was -0.319 and the interaction score (4H3777-AA) was -0.635. The interaction score (4H380-AA) was -1.53, the interaction score (4H3915-AA) was -1.06 and the interaction score (4H3974-AA) was 2.16. For the same binder, the interaction score (4H432-AA) was -1.57, the interaction score (4H446-AA) was -1.39 and the interaction score (4H63-AA) was -1.09.
